Assay results: patent US20240352102A1 (UNITED STATES GOVERNMENT AS REPRESENTED BY THE DEPARTMENT …, published 2024)

Key:
Test in all cases: peptide microarray
Peptide_066 = target: T1, Peptide_066
T1 peptide: KCGSKDNIKHVPGGG

Peptide_040 = target: T2, Peptide_040
T2 peptide: GEPPKSGDRSGYSSP

Peptide_058 = target: T3, Peptide_058
T3 peptide: SKIGSTENLKHQPGG

Peptide_037 = target: T4, Peptide_037
T4 peptide: KTPPAPKTPPSSGEP

Peptide_063 = target: T5, Peptide_063
T5 peptide: INKKLDLSNVQSKCG

Peptide_070 = target: T6, Peptide_070
T6 peptide: VQIVYKPVDLSKVTS

Peptide_072 = target: T7, Peptide_072
T7 peptide: DLSKVTSKCGSLGNI

Peptide_069 = target: T8, Peptide_069
T8 peptide: GGGSVQIVYKPVDLS

Peptide_073 = target: T9, Peptide_073
T9 peptide: VTSKCGSLGNIHHKP

Peptide_046 = target: Peptide_046
Peptide_064 = target: T10, Peptide_064
T10 peptide: LDLSNVQSKCGSKDN

Peptide_067 = target: T11, Peptide_067
T11 peptide: KDNIKHVPGGGSVQI

Peptide_045 = target: T12, Peptide_045
T12 peptide: PGSRSRTPSLPTPPT

Peptide_053 = target: T13, Peptide_053
T13 peptide: SAKSRLQTAPVPMPD

Peptide_065 = target: T14, Peptide_065
T14 peptide: NVQSKCGSKDNIKHV

Peptide_044 = target: T15, Peptide_044
T15 peptide: SPGTPGSRSRTPSLP

Peptide_043 = target: T16, Peptide_043
T16 peptide: SSPGSPGTPGSRSRT

Peptide_054 = target: T17, Peptide_054
T17 peptide: RLQTAPVPMPDLKNV

Peptide_038 = target: T18, Peptide_038
T18 peptide: APKTPPSSGEPPKSG

Peptide_042 = target: T19, Peptide_042
T19 peptide: RSGYSSPGSPGTPGS

Peptide_068 = target: T20, Peptide_068
T20 peptide: KHVPGGGSVQIVYKP

Peptide_057 = target: T21, Peptide_057
T21 peptide: KNVKSKIGSTENLKH

Peptide_074 = target: T22, Peptide_074
T22 peptide: CGSLGNIHHKPGGGQ

Peptide_052 = target: T23, Peptide_052
T23 peptide: KSPSSAKSRLQTAPV

Peptide_071 = target: T24, Peptide_071
T24 peptide: YKPVDLSKVTSKCGS

Peptide_055 = target: T25, Peptide_055
T25 peptide: APVPMPDLKNVKSKI

Peptide_062 = target: T26, Peptide_062
T26 peptide: KVQIINKKLDLSNVQ

Peptide_041 = target: T27, Peptide_041
T27 peptide: KSGDRSGYSSPGSPG

Peptide_049 = target: T28, Peptide_049
T28 peptide: EPKKVAVVRTPPKSP

Peptide_056 = target: T29, Peptide_056
T29 peptide: MPDLKNVKSKIGSTE

Peptide_039 = target: T30, Peptide_039
T30 peptide: PPSSGEPPKSGDRSG

Peptide_090 = target: T31, Peptide_090
T31 peptide: TDHGAEIVYKSPVVS

Peptide_075 = target: T32, Peptide_075
T32 peptide: GNIHHKPGGGQVEVK

Peptide_101 = target: T33, Peptide_101
T33 peptide: TLADEVSASLAKQGL

Peptide_086 = target: T34, Peptide_086
T34 peptide: KIETHKLTFRENAKA

Peptide_096 = target: T35, Peptide_096
T35 peptide: NVSSTGSIDMVDSPQ

Peptide_097 = target: T36, Peptide_097
T36 peptide: TGSIDMVDSPQLATL

Peptide_078 = target: T37, Peptide_078
T37 peptide: EVKSEKLDFKDRVQS

Peptide_089 = target: T38, Peptide_089
T38 peptide: AKAKTDHGAEIVYKS

Peptide_092 = target: T39, Peptide_092
T39 peptide: YKSPVVSGDTSPRHL

Peptide_095 = target: T40, Peptide_095
T40 peptide: RHLSNVSSTGSIDMV

Peptide_081 = target: T41, Peptide_081
T41 peptide: VQSKIGSLDNITHVP

Peptide_082 = target: T42, Peptide_082
T42 peptide: IGSLDNITHVPGGGN

Peptide_093 = target: T43, Peptide_093
T43 peptide: VVSGDTSPRHLSNVS

Peptide_084 = target: T44, Peptide_084
T44 peptide: HVPGGGNKKIETHKL

Peptide_087 = target: T45, Peptide_087
T45 peptide: HKLTFRENAKAKTDH

Peptide_083 = target: T46, Peptide_083
T46 peptide: DNITHVPGGGNKKIE

Measured: binding result

B1: mAb TRC35 (antibody, V domains shown)
VH: QVQLQQPGTELVKPGASVKLSCKASGYTFTSYWLQWVKQRPGQGLEWIGEIDPSDSYTNYNQKFKGKATLTVDTSSSTAYMQLSSLTSEDSAVYYCATLTGSWGQGTTLAVSS
VL: DVLLTQTPLSLPVSLGDQASISCRASQSIVDSNGNTFLEWYLQKSGQSPKVLIYKVSNRFSGVPDRFSGRGSGTDFTLKISRVEAEDLGVYYCFQGSHVPYTFGGGTKLEIK
notes: Mouse hybridoma monoclonal antibody raised in tau knockout mice against tau/poly(A) RNA complexes; IgG1 isotype, kappa light chain; also called TRC35 monoclonal antibody; hybridoma clone #35
no binding (tested: 1 ug/ml): all assays above
